Data reported in publication PMC10527483.

Tests used:
Assay in all cases: pull-down
[1] = molecular target: T1, QKI5 (human, UniProt Q96PU8 1-341)
T1 sequence: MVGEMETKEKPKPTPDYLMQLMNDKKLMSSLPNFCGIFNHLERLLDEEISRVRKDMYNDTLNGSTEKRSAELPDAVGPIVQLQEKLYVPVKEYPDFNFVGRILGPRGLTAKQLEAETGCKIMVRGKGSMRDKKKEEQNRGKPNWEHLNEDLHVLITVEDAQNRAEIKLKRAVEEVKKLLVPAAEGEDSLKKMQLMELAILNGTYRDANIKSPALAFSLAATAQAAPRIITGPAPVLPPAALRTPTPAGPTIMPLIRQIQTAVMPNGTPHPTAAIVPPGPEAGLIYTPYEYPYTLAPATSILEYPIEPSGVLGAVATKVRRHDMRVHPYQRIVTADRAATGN

[2] = molecular target: T2, QKI6 (human, UniProt Q96PU8-9 1-319)
T2 sequence: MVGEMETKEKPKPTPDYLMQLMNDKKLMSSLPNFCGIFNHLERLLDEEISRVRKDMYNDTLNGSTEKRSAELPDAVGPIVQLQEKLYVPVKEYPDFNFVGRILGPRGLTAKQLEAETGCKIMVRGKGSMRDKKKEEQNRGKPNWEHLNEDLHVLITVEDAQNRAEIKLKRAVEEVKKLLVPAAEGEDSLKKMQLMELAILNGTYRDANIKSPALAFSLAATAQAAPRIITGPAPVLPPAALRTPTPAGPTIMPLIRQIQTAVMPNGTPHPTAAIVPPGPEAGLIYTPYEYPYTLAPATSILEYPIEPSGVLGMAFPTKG

[3] = molecular target: T3, QKI7 (human, UniProt Q96PU8-6 1-325)
T3 sequence: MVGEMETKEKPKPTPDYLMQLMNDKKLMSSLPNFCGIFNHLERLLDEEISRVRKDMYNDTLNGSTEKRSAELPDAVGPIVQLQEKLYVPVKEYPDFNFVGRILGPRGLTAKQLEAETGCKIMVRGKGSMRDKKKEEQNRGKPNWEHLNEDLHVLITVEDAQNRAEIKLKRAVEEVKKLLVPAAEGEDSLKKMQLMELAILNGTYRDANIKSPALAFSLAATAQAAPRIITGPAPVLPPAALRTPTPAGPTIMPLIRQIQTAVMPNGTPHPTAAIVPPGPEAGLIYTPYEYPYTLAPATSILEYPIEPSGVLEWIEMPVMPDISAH

Measured: binding result

B1: m7G-Oligo, 60-mer (ssRNA)
RNA: CCAAUAAAAUAUUAACCACCAAUAAAAUAUUAACCAAGAUCCACCAAUAAAAUAUUAACC
modifications: N7-methylguanosine at G38 (the only G)
binds: [1] | [2] | [3]
